Measurements: paper PMC5603883, “Challenges to Design and Develop of DNA Aptamers for Protein Targets. II. Development of the Aptameric Affinity Ligands Specific to Human Plasma Coagulation Factor VIII Using SEC-SELEX”

Biological target: coagulation factor VIII (plasma-derived, Haemoctin 500) (Homo sapiens, UniProt P00451 20-2351)
Test: nitrocellulose filter binding, fluorescence of filtrate; 5 mM CaCl2, 5 mM MgCl2; Tris 40 mM, NaCl 117 mM, CaCl2 5 mM, MgCl2 5 mM, pH 7.4; selection at 4 °C, Kd assay temperature not stated; FVIII 20 ng (700 pM), DNA 0.5-700 nM
Settings: protein: commercial; label: fluorescein via labelled reverse primer (S3) stated for the labelling PCR; the labelled strand is not explicitly specified; predicted three-branch stem-loop

Sequence of coagulation factor VIII (plasma-derived, Haemoctin 500) (P00451 20-2351): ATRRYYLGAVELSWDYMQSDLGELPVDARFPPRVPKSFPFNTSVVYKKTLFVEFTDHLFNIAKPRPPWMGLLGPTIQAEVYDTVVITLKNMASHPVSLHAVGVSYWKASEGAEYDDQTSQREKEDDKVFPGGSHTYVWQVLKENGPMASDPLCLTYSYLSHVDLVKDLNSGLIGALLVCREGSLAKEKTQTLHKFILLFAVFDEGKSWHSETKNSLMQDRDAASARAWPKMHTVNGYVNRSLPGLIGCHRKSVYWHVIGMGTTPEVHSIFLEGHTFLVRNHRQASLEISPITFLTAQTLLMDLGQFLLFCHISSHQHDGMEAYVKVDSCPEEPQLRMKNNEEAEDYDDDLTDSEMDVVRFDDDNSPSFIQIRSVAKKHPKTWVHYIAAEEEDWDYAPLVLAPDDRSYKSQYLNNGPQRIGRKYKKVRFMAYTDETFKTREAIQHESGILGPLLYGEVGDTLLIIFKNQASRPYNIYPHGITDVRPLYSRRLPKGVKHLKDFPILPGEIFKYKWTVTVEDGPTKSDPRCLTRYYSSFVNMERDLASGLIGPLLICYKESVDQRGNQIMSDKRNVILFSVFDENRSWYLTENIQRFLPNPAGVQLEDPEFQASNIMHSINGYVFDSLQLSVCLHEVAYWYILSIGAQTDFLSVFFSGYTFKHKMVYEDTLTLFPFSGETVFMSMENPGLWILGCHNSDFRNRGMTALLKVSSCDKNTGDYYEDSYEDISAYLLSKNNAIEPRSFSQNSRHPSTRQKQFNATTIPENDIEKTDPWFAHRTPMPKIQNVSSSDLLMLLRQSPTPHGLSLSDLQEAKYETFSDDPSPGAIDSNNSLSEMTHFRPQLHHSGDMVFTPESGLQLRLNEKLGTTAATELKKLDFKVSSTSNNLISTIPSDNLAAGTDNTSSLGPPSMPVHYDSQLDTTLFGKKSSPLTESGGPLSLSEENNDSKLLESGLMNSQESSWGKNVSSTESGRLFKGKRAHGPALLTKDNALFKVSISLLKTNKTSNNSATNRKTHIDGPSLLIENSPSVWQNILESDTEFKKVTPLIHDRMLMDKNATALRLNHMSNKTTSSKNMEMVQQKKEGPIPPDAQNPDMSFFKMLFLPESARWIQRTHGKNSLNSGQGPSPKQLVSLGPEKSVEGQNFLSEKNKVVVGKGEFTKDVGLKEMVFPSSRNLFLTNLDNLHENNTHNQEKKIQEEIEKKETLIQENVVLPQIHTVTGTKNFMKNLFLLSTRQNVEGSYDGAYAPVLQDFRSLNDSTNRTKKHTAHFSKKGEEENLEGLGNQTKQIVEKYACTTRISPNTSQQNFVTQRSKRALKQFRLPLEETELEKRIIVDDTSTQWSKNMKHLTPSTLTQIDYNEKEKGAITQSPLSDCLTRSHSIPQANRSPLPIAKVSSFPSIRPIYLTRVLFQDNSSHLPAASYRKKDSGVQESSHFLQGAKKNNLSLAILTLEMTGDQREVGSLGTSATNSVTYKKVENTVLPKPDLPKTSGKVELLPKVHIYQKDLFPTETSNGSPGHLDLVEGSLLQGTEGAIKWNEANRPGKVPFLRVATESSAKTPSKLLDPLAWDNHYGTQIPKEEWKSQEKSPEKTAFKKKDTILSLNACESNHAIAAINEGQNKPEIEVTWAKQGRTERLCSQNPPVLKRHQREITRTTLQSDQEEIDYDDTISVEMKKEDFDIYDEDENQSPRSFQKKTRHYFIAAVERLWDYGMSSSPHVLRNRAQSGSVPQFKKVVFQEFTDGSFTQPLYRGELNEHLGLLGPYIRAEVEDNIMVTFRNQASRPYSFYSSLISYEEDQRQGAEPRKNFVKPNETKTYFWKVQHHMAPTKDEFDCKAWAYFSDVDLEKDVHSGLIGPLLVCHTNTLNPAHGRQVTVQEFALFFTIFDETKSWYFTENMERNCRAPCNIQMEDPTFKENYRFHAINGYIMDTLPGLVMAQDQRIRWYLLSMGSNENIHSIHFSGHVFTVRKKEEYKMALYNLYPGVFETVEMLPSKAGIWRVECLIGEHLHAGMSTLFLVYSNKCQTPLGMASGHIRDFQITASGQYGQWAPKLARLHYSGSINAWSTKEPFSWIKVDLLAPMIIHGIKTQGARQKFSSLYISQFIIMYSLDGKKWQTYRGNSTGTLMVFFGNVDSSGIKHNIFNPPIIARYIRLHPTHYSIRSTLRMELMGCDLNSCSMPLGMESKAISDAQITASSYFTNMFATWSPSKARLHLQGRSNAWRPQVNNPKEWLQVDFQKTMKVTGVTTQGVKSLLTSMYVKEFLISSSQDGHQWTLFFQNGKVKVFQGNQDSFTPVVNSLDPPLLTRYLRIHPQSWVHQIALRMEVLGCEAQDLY

B1: FVIII aptamer (full-length clone, 77 nt) (ssDNA)
DNA: GGTGTTACTCTTCATGTGGATCCGTACGTCCTGGGCTTCTTGATCGTCAGCCGAAGAATTCAGCACCCTAGCCTCGT
Kd: 925 ± 11.6 nM
